Experimental findings from US20190183976A1 are described below.

For this assay, the target named is T1, CXCR4-VC (human), P61073.
T1 chain: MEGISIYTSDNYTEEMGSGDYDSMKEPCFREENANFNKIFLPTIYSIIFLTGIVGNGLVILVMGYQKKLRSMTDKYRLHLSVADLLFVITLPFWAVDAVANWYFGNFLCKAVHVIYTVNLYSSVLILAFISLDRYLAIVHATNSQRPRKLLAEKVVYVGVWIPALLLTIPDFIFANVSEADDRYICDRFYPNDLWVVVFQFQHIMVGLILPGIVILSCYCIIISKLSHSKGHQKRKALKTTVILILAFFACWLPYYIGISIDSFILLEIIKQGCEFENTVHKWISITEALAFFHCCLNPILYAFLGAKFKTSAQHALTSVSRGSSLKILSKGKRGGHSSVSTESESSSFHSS
As to the kind of experiment: BiFC, U-2 OS cells; score=(positive cells/total cells)x100. The note with it: remark: other sources report otherwise.

B1: CXCR4-VN, P61073 1-352 (receptor, human, UniProt P61073 1-352, looked up, not shown: small tags and cut ends)
chain: MEGISIYTSDNYTEEMGSGDYDSMKEPCFREENANFNKIFLPTIYSIIFLTGIVGNGLVILVMGYQKKLRSMTDKYRLHLSVADLLFVITLPFWAVDAVANWYFGNFLCKAVHVIYTVNLYSSVLILAFISLDRYLAIVHATNSQRPRKLLAEKVVYVGVWIPALLLTIPDFIFANVSEADDRYICDRFYPNDLWVVVFQFQHIMVGLILPGIVILSCYCIIISKLSHSKGHQKRKALKTTVILILAFFACWLPYYIGISIDSFILLEIIKQGCEFENTVHKWISITEALAFFHCCLNPILYAFLGAKFKTSAQHALTSVSRGSSLKILSKGKRGGHSSVSTESESSSFHSS
B1 came in with a BiFC score of 9.9.
